Assay results reported in patent US20250325651A1.

What was measured:
Assay in all cases: sandwich ELISA (coated antibody, conditioned medium, anti-His detection), OD450 grade
[1] = molecular target: hMPV005 hMPV F-CompA fusion protein (human metapneumovirus (strain A))
[2] = molecular target: hMPV008 hMPV F-CompA fusion protein (human metapneumovirus (strain B))
[3] = molecular target: hMPV021 hMPV F-CompA fusion protein (human metapneumovirus (strain B))
[4] = molecular target: hMPV024 hMPV F-CompA fusion protein (human metapneumovirus (strain A))
[5] = molecular target: hMPV026 hMPV F-CompA fusion protein (not cleaved by furin) (human metapneumovirus (strain A))
[6] = molecular target: hMPV027 hMPV F-CompA fusion protein (not cleaved by furin) (human metapneumovirus (strain A))
[7] = molecular target: hMPV027C, furin-cleaved form of hMPV027 hMPV F-CompA fusion protein (human metapneumovirus (strain A))
[8] = molecular target: hMPV033 hMPV F-CompA fusion protein (human metapneumovirus (strain A))

Measured: OD450

MPE8 (antibody)
1 to 2 od: all assays above
